The results in this text go back to paper PMC6657595, “A DNA-Binding Protein Tunes Septum Placement during Bacillus subtilis Sporulation”.

Data set [1] has as its target RefZ-His6 (wild-type RefZ) (Bacillus subtilis). As to the kind of experiment: crystal structure; RefZ-His6 at ~5 mg/ml, dialyzed into 50 mM Tris-HCl pH 8.5, 300 mM KCl with RBM dsDNA added (4:1 RefZ:DNA); hanging-drop vapor diffusion at 16°C; no DNA seen in the crystal; one molecule in the asymmetric unit of a P4(1)2(1)2 lattice; 2.6 Å.
Another data set concerns the target T1, RefZ E117G-His6 (Bacillus subtilis 168, UniProt O34970 1-207, E117G).
T1 sequence: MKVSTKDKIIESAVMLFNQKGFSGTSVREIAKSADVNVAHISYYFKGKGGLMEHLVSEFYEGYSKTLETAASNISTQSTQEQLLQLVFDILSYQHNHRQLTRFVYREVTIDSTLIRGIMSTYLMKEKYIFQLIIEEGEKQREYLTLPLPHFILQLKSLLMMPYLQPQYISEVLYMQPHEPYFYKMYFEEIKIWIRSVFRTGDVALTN
As to the kind of experiment: BLI; within 2-fold of WT, P = 0.025; 150 mM KCl, 10 mM Tris-HCl pH 8.0; EMSA 10 nM DNA, 30 min, gel at room temperature; BLI 800 nM protein, 30 C. The following applies: protein: recombinant; tags: C-terminal His6 (pET-24b NheI/XhoI); chain copies: 2; label: 5' biotin on S27 strand; blunt.

The next data set deals with T2, RefZ R116S-His6 (Bacillus subtilis 168, UniProt O34970 1-207, R116S).
T2 sequence: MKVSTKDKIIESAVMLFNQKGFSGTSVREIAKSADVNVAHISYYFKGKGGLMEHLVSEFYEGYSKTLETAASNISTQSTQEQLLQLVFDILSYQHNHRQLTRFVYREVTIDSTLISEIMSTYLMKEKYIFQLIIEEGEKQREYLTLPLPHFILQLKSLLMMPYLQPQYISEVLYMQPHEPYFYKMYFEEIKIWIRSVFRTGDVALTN
As to the kind of experiment: BLI; Kd within 2-fold of WT; 150 mM KCl, 10 mM Tris-HCl pH 8.0; EMSA 10 nM DNA, 30 min, gel at room temperature; BLI 800 nM protein, 30 C. As to conditions: protein: recombinant; tags: C-terminal His6 (pET-24b NheI/XhoI); chain copies: 2; label: 5' biotin on S27 strand; blunt.

Another data set addresses T3, RefZ R102S-His6 (Bacillus subtilis 168, UniProt O34970 1-207, R102S).
T3 sequence: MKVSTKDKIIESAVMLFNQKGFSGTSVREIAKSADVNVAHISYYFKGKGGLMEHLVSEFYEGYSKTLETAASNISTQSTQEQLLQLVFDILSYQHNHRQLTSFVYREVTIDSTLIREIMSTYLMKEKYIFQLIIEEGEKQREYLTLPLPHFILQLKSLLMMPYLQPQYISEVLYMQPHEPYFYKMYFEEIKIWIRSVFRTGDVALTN
Described as above. The following applies: protein: recombinant; tags: C-terminal His6 (pET-24b NheI/XhoI); chain copies: 2; label: 5' biotin on S27 strand; blunt.

The target of a further data set is T4, RefZ E61K-His6 (Bacillus subtilis 168, UniProt O34970 1-207, E61K).
T4 sequence: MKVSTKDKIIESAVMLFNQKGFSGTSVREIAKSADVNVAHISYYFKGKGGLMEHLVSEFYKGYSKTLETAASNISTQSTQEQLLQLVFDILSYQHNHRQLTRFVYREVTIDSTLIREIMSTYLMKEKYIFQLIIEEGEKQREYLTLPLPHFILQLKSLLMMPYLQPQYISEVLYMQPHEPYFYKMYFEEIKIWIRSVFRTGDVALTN
The data set is described as above. The following applies: protein: recombinant; tags: C-terminal His6 (pET-24b NheI/XhoI); chain copies: 2; label: 5' biotin on S27 strand; blunt.

Another data set addresses T5, RefZ E53K-His6 (Bacillus subtilis 168, UniProt O34970 1-207, E53K).
T5 sequence: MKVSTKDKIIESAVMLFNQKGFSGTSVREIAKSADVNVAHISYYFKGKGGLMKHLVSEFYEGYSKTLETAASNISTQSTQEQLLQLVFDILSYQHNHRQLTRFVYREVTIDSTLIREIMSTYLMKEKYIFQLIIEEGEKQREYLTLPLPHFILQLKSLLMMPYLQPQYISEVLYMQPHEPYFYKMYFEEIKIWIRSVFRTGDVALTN
Described as above. The following applies: protein: recombinant; tags: C-terminal His6 (pET-24b NheI/XhoI); chain copies: 2; label: 5' biotin on S27 strand; blunt.

A further data set concerns the target T6, RefZ R102C-His6 (Bacillus subtilis 168, UniProt O34970 1-207, R102C).
T6 sequence: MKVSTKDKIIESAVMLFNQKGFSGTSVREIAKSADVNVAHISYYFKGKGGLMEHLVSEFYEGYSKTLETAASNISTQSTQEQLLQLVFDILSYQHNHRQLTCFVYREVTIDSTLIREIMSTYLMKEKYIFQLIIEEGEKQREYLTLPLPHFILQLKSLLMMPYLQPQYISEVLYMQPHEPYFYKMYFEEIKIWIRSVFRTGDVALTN
Described as above. As to conditions: protein: recombinant; tags: C-terminal His6 (pET-24b NheI/XhoI); chain copies: 2; label: 5' biotin on S27 strand; blunt.

For another data set, the target named is T7, RefZ E179K-His6 (Bacillus subtilis 168, UniProt O34970 1-207, E179K).
T7 sequence: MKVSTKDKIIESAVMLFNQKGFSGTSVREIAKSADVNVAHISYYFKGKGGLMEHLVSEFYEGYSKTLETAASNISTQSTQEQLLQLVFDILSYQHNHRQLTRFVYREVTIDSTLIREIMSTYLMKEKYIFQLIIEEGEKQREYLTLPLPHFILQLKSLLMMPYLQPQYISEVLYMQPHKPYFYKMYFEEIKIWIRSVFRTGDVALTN
The data set is described as above. As to conditions: protein: recombinant; tags: C-terminal His6 (pET-24b NheI/XhoI); chain copies: 2; label: 5' biotin on S27 strand; blunt.

Another data set deals with T8, RefZ E117D-His6 (Bacillus subtilis 168, UniProt O34970 1-207, E117D).
T8 sequence: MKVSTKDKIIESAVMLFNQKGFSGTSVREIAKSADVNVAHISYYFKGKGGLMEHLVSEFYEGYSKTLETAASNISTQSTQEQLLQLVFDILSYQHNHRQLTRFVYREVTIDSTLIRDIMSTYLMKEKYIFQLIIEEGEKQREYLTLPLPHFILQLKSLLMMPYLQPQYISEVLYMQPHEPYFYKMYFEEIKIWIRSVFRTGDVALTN
The description is as above. As to conditions: protein: recombinant; tags: C-terminal His6 (pET-24b NheI/XhoI); chain copies: 2; label: 5' biotin on S27 strand; blunt.

The target in another data set is T9, RefZ-His6 (WT) (Bacillus subtilis PY79, UniProt O34970 1-207).
T9 sequence: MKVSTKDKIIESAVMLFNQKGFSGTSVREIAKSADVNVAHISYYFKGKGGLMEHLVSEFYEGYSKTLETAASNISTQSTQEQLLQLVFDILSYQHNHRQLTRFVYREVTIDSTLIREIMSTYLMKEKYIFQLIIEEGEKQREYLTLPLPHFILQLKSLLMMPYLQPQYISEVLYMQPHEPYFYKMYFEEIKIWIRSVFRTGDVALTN
As to the kind of experiment: BLI; Kd value only in Fig. 6 image; reference; 150 mM KCl, 10 mM Tris-HCl pH 8.0; EMSA 10 nM DNA, 30 min, gel at room temperature; BLI 800 nM protein, 30 C. As to conditions: protein: recombinant; tags: C-terminal His6 (pET-24b NheI/XhoI); chain copies: 2; label: 5' biotin on S27 strand; blunt.

Consider “RefZ-His6 (wild-type RefZ) (natural protein)”, for which the stoichiometry N in data set [1] worked out at 2.

B1: RBML1 41-bp (dsDNA)
DNA 1: GCCTTTTCGTTTTGAACAAACGTTTGATTAAAACAAATAGC
DNA 2: GCTATTTGTTTTAATCAAACGTTTGTTCAAAACGAAAAGGC
With B1, the binding result with RefZ E117G-His6, with RefZ R116S-His6, in the data set with RefZ R102S-His6, in the data set with RefZ E61K-His6, with RefZ E53K-His6 and with RefZ R102C-His6 was “binds” in each case. Moreover, the binding result with RefZ E179K-His6, in the data set with RefZ E117D-His6 and with RefZ-His6 (WT) was “binds” in each case.
